Results reported in US10450368.

Legend:
CH505.M10D8gp120 [1] = assay: direct-binding ELISA
CH505.M11D8gp120/293F [2] = assay: direct-binding ELISA
CH505.M19D8gp120 [3] = assay: direct-binding ELISA
CH505.M21D8gp120/293F [4] = assay: direct-binding ELISA
CH505.M5D8gp120293F [5] = assay: direct-binding ELISA
CH505.M7D8gp120/293F [6] = assay: direct-binding ELISA
CH505.M9D8gp120/293F [7] = assay: direct-binding ELISA
[8] = biological target: CH505.TF mutant gp120 M20 (HIV-1); assay: direct-binding ELISA
[9] = biological target: CH505.TF mutant gp120 M6 (HIV-1); assay: direct-binding ELISA
[10] = biological target: CH505.TF mutant gp120 M8 (HIV-1); assay: direct-binding ELISA
CH0505_CON D7gp120/293i = assay: ELISA
CH505.w30.12D8gp120 = assay: ELISA
CH505w020.14D8gp120 = assay: ELISA
CH505w030.20D8gp120/293F = assay: ELISA
CH505w136.B18D8gp120 = assay: ELISA
[11] = biological target: HIV-1 CH505 transmitted/founder gp120 Env (HIV-1); assay: SPR, antibody captured on anti-human Ig Fc, gp120 injected
CH505.M10D8gp120 [12] = assay: ELISA
CH505.M11D8gp120/293F [13] = assay: ELISA
CH505.M19D8gp120 [14] = assay: ELISA
CH505.M21D8gp120/293F [15] = assay: ELISA
CH505.M5D8gp120293F [16] = assay: ELISA
CH505.M7D8gp120/293F [17] = assay: ELISA
CH505.M9D8gp120/293F [18] = assay: ELISA
[19] = biological target: CH505.TF mutant gp120 M20 (HIV-1); assay: ELISA
[20] = biological target: CH505.TF mutant gp120 M6 (HIV-1); assay: ELISA
[21] = biological target: CH505.TF mutant gp120 M8 (HIV-1); assay: ELISA
Centromere B [22] = biological target: Centromere B (UniProt P07199); assay: AtheNA, Ab 25 ug/ml
Sequence of Centromere B (P07199 whole entry): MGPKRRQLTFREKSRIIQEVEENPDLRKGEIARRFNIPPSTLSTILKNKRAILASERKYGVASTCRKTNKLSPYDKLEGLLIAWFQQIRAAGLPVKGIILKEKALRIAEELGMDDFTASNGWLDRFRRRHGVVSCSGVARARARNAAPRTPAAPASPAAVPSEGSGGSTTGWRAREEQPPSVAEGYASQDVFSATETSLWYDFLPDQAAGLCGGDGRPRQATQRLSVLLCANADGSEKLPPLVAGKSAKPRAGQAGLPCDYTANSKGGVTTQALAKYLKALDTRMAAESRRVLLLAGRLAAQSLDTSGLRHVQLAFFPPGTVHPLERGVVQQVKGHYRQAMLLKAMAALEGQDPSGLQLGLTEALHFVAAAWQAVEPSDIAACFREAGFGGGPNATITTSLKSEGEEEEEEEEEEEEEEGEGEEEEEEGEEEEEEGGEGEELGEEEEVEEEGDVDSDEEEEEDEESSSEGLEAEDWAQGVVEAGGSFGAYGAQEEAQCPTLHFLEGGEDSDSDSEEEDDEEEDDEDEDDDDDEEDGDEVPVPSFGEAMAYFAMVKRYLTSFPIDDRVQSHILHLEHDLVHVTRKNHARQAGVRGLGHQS

Histones [23] = assay: AtheNA, Ab 25 ug/ml
Jo-1 [24] = biological target: Jo-1 (UniProt P12081); assay: AtheNA, Ab 25 ug/ml
Sequence of Jo-1 (P12081 whole entry): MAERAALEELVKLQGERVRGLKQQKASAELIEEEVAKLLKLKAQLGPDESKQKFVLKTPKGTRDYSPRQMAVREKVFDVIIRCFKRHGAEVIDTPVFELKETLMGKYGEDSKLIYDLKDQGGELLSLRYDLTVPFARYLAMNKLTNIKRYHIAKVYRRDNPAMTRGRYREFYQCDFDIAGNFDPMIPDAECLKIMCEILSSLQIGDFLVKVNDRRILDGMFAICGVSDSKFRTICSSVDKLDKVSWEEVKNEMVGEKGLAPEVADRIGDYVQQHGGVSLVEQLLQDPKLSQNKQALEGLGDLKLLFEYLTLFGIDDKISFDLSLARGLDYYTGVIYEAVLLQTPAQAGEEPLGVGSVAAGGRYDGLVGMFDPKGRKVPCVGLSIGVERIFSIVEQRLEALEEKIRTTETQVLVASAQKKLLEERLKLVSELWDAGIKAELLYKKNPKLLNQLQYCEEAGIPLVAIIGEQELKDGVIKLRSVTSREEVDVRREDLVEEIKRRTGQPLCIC

RNP (ribonucleoprotein) [25] = assay: AtheNA, Ab 25 ug/ml
SSA [26] = assay: AtheNA, Ab 25 ug/ml
SSB [27] = biological target: SSB (UniProt P05455); assay: AtheNA, Ab 25 ug/ml
Sequence of SSB (P05455 whole entry): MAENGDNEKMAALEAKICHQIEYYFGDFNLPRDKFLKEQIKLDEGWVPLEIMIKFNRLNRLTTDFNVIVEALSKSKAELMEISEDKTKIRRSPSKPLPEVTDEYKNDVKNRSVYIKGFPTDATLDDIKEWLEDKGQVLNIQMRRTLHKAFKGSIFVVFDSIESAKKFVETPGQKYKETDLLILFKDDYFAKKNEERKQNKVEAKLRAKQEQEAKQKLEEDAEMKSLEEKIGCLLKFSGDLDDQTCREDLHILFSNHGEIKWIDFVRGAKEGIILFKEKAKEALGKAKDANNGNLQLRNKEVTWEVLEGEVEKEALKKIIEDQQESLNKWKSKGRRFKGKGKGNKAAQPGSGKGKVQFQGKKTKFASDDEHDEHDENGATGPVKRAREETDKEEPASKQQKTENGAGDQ

Scl-70 [28] = biological target: Scl-70 (UniProt P11387); assay: AtheNA, Ab 25 ug/ml
Sequence of Scl-70 (P11387 whole entry): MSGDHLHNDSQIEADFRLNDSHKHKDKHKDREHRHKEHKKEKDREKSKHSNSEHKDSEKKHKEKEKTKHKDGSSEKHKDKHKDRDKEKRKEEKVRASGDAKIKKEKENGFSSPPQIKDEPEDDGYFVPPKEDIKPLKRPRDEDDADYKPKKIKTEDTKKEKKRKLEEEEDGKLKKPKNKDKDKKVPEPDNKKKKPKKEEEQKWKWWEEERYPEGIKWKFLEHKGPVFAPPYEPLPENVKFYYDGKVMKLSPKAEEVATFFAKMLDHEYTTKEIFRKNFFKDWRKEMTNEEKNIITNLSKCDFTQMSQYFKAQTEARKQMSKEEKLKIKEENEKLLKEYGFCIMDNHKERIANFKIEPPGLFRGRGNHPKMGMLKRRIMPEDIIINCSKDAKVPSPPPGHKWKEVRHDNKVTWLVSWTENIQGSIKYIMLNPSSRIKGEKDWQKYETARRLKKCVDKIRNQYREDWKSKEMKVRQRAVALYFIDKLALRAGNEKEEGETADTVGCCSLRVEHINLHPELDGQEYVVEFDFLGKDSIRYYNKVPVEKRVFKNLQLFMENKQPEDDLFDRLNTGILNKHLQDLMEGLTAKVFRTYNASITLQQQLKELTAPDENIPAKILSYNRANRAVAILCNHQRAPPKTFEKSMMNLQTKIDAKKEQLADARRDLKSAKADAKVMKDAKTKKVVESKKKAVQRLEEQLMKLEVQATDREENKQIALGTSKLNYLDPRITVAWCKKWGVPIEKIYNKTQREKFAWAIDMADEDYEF

Sm (Smith antigen) [29] = assay: AtheNA, Ab 25 ug/ml
Centromere B [30] = biological target: Centromere B (UniProt P07199); assay: AtheNA, Ab 12.5 ug/ml
Histones [31] = assay: AtheNA, Ab 12.5 ug/ml
Jo-1 [32] = biological target: Jo-1 (UniProt P12081); assay: AtheNA, Ab 12.5 ug/ml
RNP (ribonucleoprotein) [33] = assay: AtheNA, Ab 12.5 ug/ml
SSA [34] = assay: AtheNA, Ab 12.5 ug/ml
SSB [35] = biological target: SSB (UniProt P05455); assay: AtheNA, Ab 12.5 ug/ml
Scl-70 [36] = biological target: Scl-70 (UniProt P11387); assay: AtheNA, Ab 12.5 ug/ml
Sm (Smith antigen) [37] = assay: AtheNA, Ab 12.5 ug/ml
Centromere B [38] = biological target: Centromere B (UniProt P07199); assay: AtheNA, Ab 6.25 ug/ml
Histones [39] = assay: AtheNA, Ab 6.25 ug/ml
Jo-1 [40] = biological target: Jo-1 (UniProt P12081); assay: AtheNA, Ab 6.25 ug/ml
RNP (ribonucleoprotein) [41] = assay: AtheNA, Ab 6.25 ug/ml
SSA [42] = assay: AtheNA, Ab 6.25 ug/ml
SSB [43] = biological target: SSB (UniProt P05455); assay: AtheNA, Ab 6.25 ug/ml
Scl-70 [44] = biological target: Scl-70 (UniProt P11387); assay: AtheNA, Ab 6.25 ug/ml
Sm (Smith antigen) [45] = assay: AtheNA, Ab 6.25 ug/ml

## CH103 (antibody)
CH505.M10D8gp120 [1]
  LogAUC: 13.2
CH505.M11D8gp120/293F [2]
  LogAUC: 13.4
CH505.M19D8gp120 [3]
  LogAUC: 13.3
CH505.M21D8gp120/293F [4]
  LogAUC: 11.4
CH505.M5D8gp120293F [5]
  LogAUC: 9.84
CH505.M7D8gp120/293F [6]
  LogAUC: 11.1
CH505.M9D8gp120/293F [7]
  LogAUC: 11.6
[8]
  LogAUC: 12.2
[9]
  LogAUC: 13.1
[10]
  LogAUC: 11.5

## CH103 UCA (antibody)
CH0505_CON D7gp120/293i
  LogAUC: 4.3
CH505.w30.12D8gp120
  LogAUC: 0
CH505w020.14D8gp120
  LogAUC: 0.33
CH505w030.20D8gp120/293F
  LogAUC: 0
CH505w136.B18D8gp120
  LogAUC: 0
CH505.M10D8gp120 [1]
  LogAUC: 1.35
CH505.M11D8gp120/293F [2]
  LogAUC: 2.62
CH505.M19D8gp120 [3]
  LogAUC: 1.74
CH505.M21D8gp120/293F [4]
  LogAUC: 0
CH505.M5D8gp120293F [5]
  LogAUC: 0
CH505.M7D8gp120/293F [6]
  LogAUC: 0.44
CH505.M9D8gp120/293F [7]
  LogAUC: 0.12
[8]
  LogAUC: 0
[9]
  LogAUC: 5.23
[10]
  LogAUC: 0
[11]
  Kd: 0.227 µM
  kon: 37000 M⁻¹ s⁻¹

## CH104 (antibody)
CH505.M10D8gp120 [1]
  LogAUC: 11.7
CH505.M11D8gp120/293F [2]
  LogAUC: 12
CH505.M19D8gp120 [3]
  LogAUC: 11.3
CH505.M21D8gp120/293F [4]
  LogAUC: 11.2
CH505.M5D8gp120293F [5]
  LogAUC: 9.02
CH505.M7D8gp120/293F [6]
  LogAUC: 9.73
CH505.M9D8gp120/293F [7]
  LogAUC: 10.8
[8]
  LogAUC: 10.8
[9]
  LogAUC: 11.6
[10]
  LogAUC: 10.1

## CH235 IA3 (antibody)
CH0505_CON D7gp120/293i
  LogAUC: 5.09
CH505.M10D8gp120 [12]
  LogAUC: 0.08
CH505.M11D8gp120/293F [13]
  LogAUC: 0
CH505.M19D8gp120 [14]
  LogAUC: 0.11
CH505.M21D8gp120/293F [15]
  LogAUC: 0
CH505.M5D8gp120293F [16]
  LogAUC: 7.01
CH505.M7D8gp120/293F [17]
  LogAUC: 0
CH505.M9D8gp120/293F [18]
  LogAUC: 0
[19]
  LogAUC: 0
[20]
  LogAUC: 2.96
[21]
  LogAUC: 0
CH505.w30.12D8gp120
  LogAUC: 0
CH505w020.14D8gp120
  LogAUC: 2.72
CH505w030.20D8gp120/293F
  LogAUC: 1.16
CH505w136.B18D8gp120
  LogAUC: 0
Centromere B [22]
  AtheNA signal (relative luminescence units): 27
Histones [23]
  AtheNA signal (relative luminescence units): 12
Jo-1 [24]
  AtheNA signal (relative luminescence units): 8
RNP (ribonucleoprotein) [25]
  AtheNA signal (relative luminescence units): 7
SSA [26]
  AtheNA signal (relative luminescence units): 10
SSB [27]
  AtheNA signal (relative luminescence units): 9
Scl-70 [28]
  AtheNA signal (relative luminescence units): 4
Sm (Smith antigen) [29]
  AtheNA signal (relative luminescence units): 13
Centromere B [30]
  AtheNA signal (relative luminescence units): 15
Histones [31]
  AtheNA signal (relative luminescence units): 7
Jo-1 [32]
  AtheNA signal (relative luminescence units): 3
RNP (ribonucleoprotein) [33]
  AtheNA signal (relative luminescence units): 5
SSA [34]
  AtheNA signal (relative luminescence units): 12
SSB [35]
  AtheNA signal (relative luminescence units): 6
Scl-70 [36]
  AtheNA signal (relative luminescence units): 3
Sm (Smith antigen) [37]
  AtheNA signal (relative luminescence units): 12
Centromere B [38]
  AtheNA signal (relative luminescence units): 9
Histones [39]
  AtheNA signal (relative luminescence units): 5
Jo-1 [40]
  AtheNA signal (relative luminescence units): 2
RNP (ribonucleoprotein) [41]
  AtheNA signal (relative luminescence units): 4
SSA [42]
  AtheNA signal (relative luminescence units): 12
SSB [43]
  AtheNA signal (relative luminescence units): 3
Scl-70 [44]
  AtheNA signal (relative luminescence units): 2
Sm (Smith antigen) [45]
  AtheNA signal (relative luminescence units): 7

## CH235 IA4 (antibody)
CH0505_CON D7gp120/293i
  LogAUC: 0
CH505.M10D8gp120 [12]
  LogAUC: 0.12
CH505.M11D8gp120/293F [13]
  LogAUC: 0
CH505.M19D8gp120 [14]
  LogAUC: 0
CH505.M21D8gp120/293F [15]
  LogAUC: 0
CH505.M5D8gp120293F [16]
  LogAUC: 1.36
CH505.M7D8gp120/293F [17]
  LogAUC: 0
CH505.M9D8gp120/293F [18]
  LogAUC: 0
[19]
  LogAUC: 0
[20]
  LogAUC: 0
[21]
  LogAUC: 0
CH505.w30.12D8gp120
  LogAUC: 0
CH505w020.14D8gp120
  LogAUC: 0
CH505w030.20D8gp120/293F
  LogAUC: 0.24
CH505w136.B18D8gp120
  LogAUC: 0
Centromere B [22]
  AtheNA signal (relative luminescence units): 10
Histones [23]
  AtheNA signal (relative luminescence units): 9
Jo-1 [24]
  AtheNA signal (relative luminescence units): 2
RNP (ribonucleoprotein) [25]
  AtheNA signal (relative luminescence units): 5
SSA [26]
  AtheNA signal (relative luminescence units): 12
SSB [27]
  AtheNA signal (relative luminescence units): 4
Scl-70 [28]
  AtheNA signal (relative luminescence units): 2
Sm (Smith antigen) [29]
  AtheNA signal (relative luminescence units): 12
Centromere B [30]
  AtheNA signal (relative luminescence units): 5
Histones [31]
  AtheNA signal (relative luminescence units): 6
Jo-1 [32]
  AtheNA signal (relative luminescence units): 3
RNP (ribonucleoprotein) [33]
  AtheNA signal (relative luminescence units): 4
SSA [34]
  AtheNA signal (relative luminescence units): 11
SSB [35]
  AtheNA signal (relative luminescence units): 3
Scl-70 [36]
  AtheNA signal (relative luminescence units): 2
Sm (Smith antigen) [37]
  AtheNA signal (relative luminescence units): 6
Centromere B [38]
  AtheNA signal (relative luminescence units): 5
Histones [39]
  AtheNA signal (relative luminescence units): 4
Jo-1 [40]
  AtheNA signal (relative luminescence units): 4
RNP (ribonucleoprotein) [41]
  AtheNA signal (relative luminescence units): 3
SSA [42]
  AtheNA signal (relative luminescence units): 11
SSB [43]
  AtheNA signal (relative luminescence units): 5
Scl-70 [44]
  AtheNA signal (relative luminescence units): 2
Sm (Smith antigen) [45]
  AtheNA signal (relative luminescence units): 6
[11]
  Kd: 30.6 µM
  koff: 0.0881 s⁻¹
  kon: 2900 M⁻¹ s⁻¹

## CH235UA/293i (antibody)
Centromere B [22]
  AtheNA signal (relative luminescence units): 3
Histones [23]
  AtheNA signal (relative luminescence units): 3
Jo-1 [24]
  AtheNA signal (relative luminescence units): 5
RNP (ribonucleoprotein) [25]
  AtheNA signal (relative luminescence units): 4
SSA [26]
  AtheNA signal (relative luminescence units): 9
SSB [27]
  AtheNA signal (relative luminescence units): 3
Scl-70 [28]
  AtheNA signal (relative luminescence units): 3
Sm (Smith antigen) [29]
  AtheNA signal (relative luminescence units): 6
Centromere B [30]
  AtheNA signal (relative luminescence units): 3
Histones [31]
  AtheNA signal (relative luminescence units): 4
Jo-1 [32]
  AtheNA signal (relative luminescence units): 5
RNP (ribonucleoprotein) [33]
  AtheNA signal (relative luminescence units): 3
SSA [34]
  AtheNA signal (relative luminescence units): 9
SSB [35]
  AtheNA signal (relative luminescence units): 4
Scl-70 [36]
  AtheNA signal (relative luminescence units): 3
Sm (Smith antigen) [37]
  AtheNA signal (relative luminescence units): 6
Centromere B [38]
  AtheNA signal (relative luminescence units): 2
Histones [39]
  AtheNA signal (relative luminescence units): 2
Jo-1 [40]
  AtheNA signal (relative luminescence units): 3
RNP (ribonucleoprotein) [41]
  AtheNA signal (relative luminescence units): 2
SSA [42]
  AtheNA signal (relative luminescence units): 10
SSB [43]
  AtheNA signal (relative luminescence units): 5
Scl-70 [44]
  AtheNA signal (relative luminescence units): 3
Sm (Smith antigen) [45]
  AtheNA signal (relative luminescence units): 5
